Laboratory results: the RNAGym collection of RNA variant scans (doi:10.1073/pnas.2313332121)
Fewer inactive variants are shown than the library holds.

B1: TPR 5TU (parent)
chain: GGAUCUUCUCGAUCUAACAAAAAAGACAAAUCUGCCACAAAGCUUGAGAGCAUCUUCGGAUGCAGAGGCGGCAGCCUUCGGUGGCGCGAUAGCGCCAACGUUCUCAACUAUGACACGCAAAACGCGUGCUCCGUUGAAUGGAGUUUAUCAUG

Variants of: B1
Test: polymerase ribozyme fitness, log enrichment relative to wild type (log ratio); higher = more active; in vitro selection for triplet polymerase activity
Procedure, shortened: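 After PCR construction and transcription, each subunit's mutant library from a heterodimeric triplet polymerase ribozyme was annealed with a biotinylated primer, the partner subunit and triplets. Incubation was frozen, at −7 °C, and extended constructs were gel-excised, bound to streptavidin beads and amplified by RT-PCR, in one selection round done in triplicate. Fitness is the logarithm of a genotype's enrichment divided by that of the wild type, from inverse-variance-weighted replicate averages of Illumina-sequenced inputs and outputs. The base of the logarithm is 2, and genotypes needed ≥10 input reads and ≥1 read per output.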

Variant	polymerase ribozyme fitness (log ratio)
G84A C85U G143A	-1.63
C85A C96U G128A	-4.19
C85A C114U G143A	≤ -4.2
G84A U127C U139G A142C	-3.93
G84A U104C	-0.421
G84C G117C	-1.73
C85A C108U U135A U144C	-4.17
G84A G133C G143U	-3.92
G84U C116U G143C	-3.37
G84C C85G	-4.03
G84A A98C C105G U148C	-3.35
C85A C103G A147U	-2.48
C85A A150C	≤ -4.2
C85A A150G	-2.41
G84A A91U G126U G143U	≤ -4.2
C85A C116A	0.744
G84U C95U	-1.23
G84A A150C	-3
G84A A150G	-0.63
G84A G133C G141C	-2.83
G84A C118U G141A	0.213
G84A A89G	-1.6
G84U U102C C149G	≤ -4.2
G84U C99G U148A	≤ -4.2

Variant	polymerase ribozyme fitness (log ratio)
G84A C132G	-3.59
G84U C87G G88C G143C	≤ -4.2
G84U A142G	-3.27
G84U G94U	-2.37
G84U U134A A142C	≤ -4.2
C85A C96A	-2.22
G84U G92C A121U	-2.94
G84U C123A	-1.79
G84U U90A C108A	≤ -4.2
C85A A142C	-3.23
G84A G94A A98C G124A	-0.811
G84A U109G	-1.95
G84A U148A	-2.74
G84A U148C	-2.65
G84A A106G A142C	-0.922
G84U C129U	-1.42
G84U A89G	-3.82
G84U G117A	-2
C85A A137G	-2.96
G84U A137U C149A	≤ -4.2
G84U C96A C103U A113U	≤ -4.2
G84A U145A	0.189
G84A U145C	-0.153
G84U G141A	-1.4

Variant	polymerase ribozyme fitness (log ratio)
G84A G136A U148C	-1.66
G84U U104G	-2.26
G84C A121U A122C	-1.63
G84A U134C	-0.573
G84A U134G	-2.31
G84U G86A C93U C123U	-1.15
G84U C93G	≤ -4.2
G84A U135A	-1.69
G84A C123G	-0.679
G84A C123U	-0.156
G84A A147C	-0.0528
G84A G143U	-2.51
G84A C93U	-1.83
G84U C131G	-3.96
C85A A91G	-3.36
G84U G117U C123U G141A U146A	≤ -4.2
G84U U101G G126C	-1.67
G84A A106U G141U	-0.79
G84U C93A U101C A107G G133U G141C	≤ -4.2
G84A C93U C108G A137U	≤ -4.2
G84U U102G	-4.16
G84U A91G U144G	-1.53
G84A A97G C129A G152A	-4
G84A C95G	-0.784

Variant	polymerase ribozyme fitness (log ratio)
G84A C95A	-0.531
G84U A120G	-2.16
G84C A115C C116U	-3.98
G84U C103U A137C	≤ -4.2
G84U G88A A120C	≤ -4.2
G84A G117U U139G U145C	-0.527
G84A U144A	-1.65
G84A U144G	0.394
G84A C96A A119U	-1.11
G84U A98G	-2.89
G84A G88U	-3.57
G84A G88A	≤ -4.2
C85A C96U C132A	-3.67
C85A A147G	-0.743
G84A A97G	-2.34
G84A A97U	-1.12
G84A C99U G100U U144A	-4.12
G84U G133C	-3.53
G84C C125G	-1.94
G84A A122G G140A G141A	≤ -4.2
G84A C103G C149U	-3.35
G84A G88U C96G A113U U144G	≤ -4.2
C85A C96U A137U U144A	≤ -4.2
C85A C105U	-1.89

Variant	polymerase ribozyme fitness (log ratio)
G84A G136A	-0.313
G84A G136C	-3.25
G84C A115G	-2.49
G84U U104G C125A	-3.09
G84A A142G	-1.82
G84A A142C	-1.65
G84A A89G G100C A115G C125U	≤ -4.2
G84U U144A	-3.22
G84C C85A G92U C96A A97C C105U	-2.61
G84U G94A C96A	-3.87
G84A U101A A115U A121G G124A	≤ -4.2
G84A C96G	-0.627
C85A C99A	-2.8
C85A C99G	-3.49
C85A C93U A119C G126U U127A	≤ -4.2
G84A C95G G141C	-0.311
G84A A110U	-3.36
G84U G92A	≤ -4.2
C85A A98G C116U A120C A147U	0.389
G84A C131G	-3.02
G84A C131A	-2.79
C85A A120U	-1.7
G84A A97U A147U	0.467
G84U G86C C93G A98U A142U	-1.78

Variant	polymerase ribozyme fitness (log ratio)
G84U C87G U90C C96U U145G	≤ -4.2
G84U A106C	-2.1
G84U A106U	-2.69
G84C C123G U146G	-2.7
C85A A107U A147C U151C	≤ -4.2
G84A A115U	-2.62
G84A A115C	-0.594
G84U C116U G141C	-4.04
G84U A115U	-3.4
G84A C105U	0.191
G84U U130A U145C	-4.13
G84U C99G C103U	≤ -4.2
G84C A142G	-3.03
C85A	-1.28
G84A G124U	-0.556
G84A G124A	-0.287
G84A G100C	≤ -4.2
C85A A89G U146C	-2.83
G84U G136A G141C	-1.29
G84A C118A U146C	-1.34
G84A C118A	-1.61
G84A A120C C125U G136A	0.204
C85A A106G	-2.01
G84C C95A A142C	-1.65

Variant	polymerase ribozyme fitness (log ratio)
C85A A122G	-2.54
G84U C87A C116U	≤ -4.2
C85A C87U A119U	≤ -4.2
C85A C95A C125U	-1.39
G84U A89U U104G U127A	≤ -4.2
G84U A121C	-1.74
G84A A98G C105A	-1.05
C85A C95G A115G	-3.81
G84U C105A U139C	-4.17
G84A U102A	-1.01
G84U G126A	-1.87
G84U G126U	-1.45
G84U A138U	≤ -4.2
G84U G100A A106U A137C	≤ -4.2
C85A A98U C108A U134G	≤ -4.2
G84C G92C A106U C149U	≤ -4.2
G84A U146A	-0.719
C85A A138G	-3.24
G84U A97U	-1.54
G84A C114G G124A U134C	-3.53
G84A C85A G86A G92U U101C	≤ -4.2
G84U U101G U134G	-3.87
G84U U127A U134G	≤ -4.2
